Paper PMC7979498 (2022)

Legend:
[1] = molecular target: T1, ROS1 (Homo sapiens, UniProt P08922); assay: saturation binding assay
T1 chain: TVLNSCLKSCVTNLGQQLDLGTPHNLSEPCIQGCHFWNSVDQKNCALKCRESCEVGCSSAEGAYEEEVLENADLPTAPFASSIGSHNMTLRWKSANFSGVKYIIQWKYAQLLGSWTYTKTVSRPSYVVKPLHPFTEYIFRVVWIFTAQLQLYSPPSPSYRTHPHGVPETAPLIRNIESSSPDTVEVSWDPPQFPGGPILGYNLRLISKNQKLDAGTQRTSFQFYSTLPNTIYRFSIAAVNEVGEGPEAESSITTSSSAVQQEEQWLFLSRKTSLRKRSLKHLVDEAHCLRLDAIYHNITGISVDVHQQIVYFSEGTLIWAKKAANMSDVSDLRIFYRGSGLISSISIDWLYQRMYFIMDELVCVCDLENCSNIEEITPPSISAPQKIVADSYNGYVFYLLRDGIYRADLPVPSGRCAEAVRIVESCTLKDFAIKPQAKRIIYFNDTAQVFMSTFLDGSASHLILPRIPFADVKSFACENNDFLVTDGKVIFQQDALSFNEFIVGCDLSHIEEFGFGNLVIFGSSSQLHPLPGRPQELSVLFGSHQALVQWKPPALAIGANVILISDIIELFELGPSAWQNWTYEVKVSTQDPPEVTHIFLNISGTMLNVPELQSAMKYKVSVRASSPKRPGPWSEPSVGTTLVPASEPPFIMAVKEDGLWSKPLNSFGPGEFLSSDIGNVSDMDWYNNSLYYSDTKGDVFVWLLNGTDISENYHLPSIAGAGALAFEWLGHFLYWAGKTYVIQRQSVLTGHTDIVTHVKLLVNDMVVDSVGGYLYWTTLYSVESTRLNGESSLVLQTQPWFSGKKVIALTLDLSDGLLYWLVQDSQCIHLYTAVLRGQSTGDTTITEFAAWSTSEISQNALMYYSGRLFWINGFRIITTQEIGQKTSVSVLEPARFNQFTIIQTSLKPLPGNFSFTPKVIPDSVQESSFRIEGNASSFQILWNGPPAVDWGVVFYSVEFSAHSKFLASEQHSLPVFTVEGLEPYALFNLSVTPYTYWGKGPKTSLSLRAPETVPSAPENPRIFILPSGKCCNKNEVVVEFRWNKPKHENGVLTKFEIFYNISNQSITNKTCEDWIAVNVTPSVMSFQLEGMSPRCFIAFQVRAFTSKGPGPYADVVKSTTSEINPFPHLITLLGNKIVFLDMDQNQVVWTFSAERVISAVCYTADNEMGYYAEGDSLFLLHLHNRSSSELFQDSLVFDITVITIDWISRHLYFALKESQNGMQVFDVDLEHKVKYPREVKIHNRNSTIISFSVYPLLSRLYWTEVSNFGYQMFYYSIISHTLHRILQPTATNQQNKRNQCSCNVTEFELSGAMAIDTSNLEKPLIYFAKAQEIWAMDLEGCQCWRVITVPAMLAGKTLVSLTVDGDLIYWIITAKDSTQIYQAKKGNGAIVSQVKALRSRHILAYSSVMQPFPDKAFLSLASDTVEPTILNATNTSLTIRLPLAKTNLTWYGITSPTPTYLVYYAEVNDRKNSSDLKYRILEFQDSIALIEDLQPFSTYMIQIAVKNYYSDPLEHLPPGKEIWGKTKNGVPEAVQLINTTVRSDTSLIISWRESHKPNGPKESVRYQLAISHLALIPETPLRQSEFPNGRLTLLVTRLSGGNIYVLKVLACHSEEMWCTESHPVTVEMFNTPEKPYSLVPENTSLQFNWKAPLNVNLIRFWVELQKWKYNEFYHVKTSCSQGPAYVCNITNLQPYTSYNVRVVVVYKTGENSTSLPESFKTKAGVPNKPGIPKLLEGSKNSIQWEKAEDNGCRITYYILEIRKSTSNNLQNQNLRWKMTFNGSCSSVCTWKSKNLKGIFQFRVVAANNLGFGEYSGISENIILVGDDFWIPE

[2] = molecular target: T2, ROS1 ECD (Homo sapiens, UniProt P08922); assay: saturation binding assay
T2 chain: T1 chain

B1: RNase7 (protein)
chain: KPKGMTSSQWFKIQHMQPSPQACNSAMKNINKHTKRCKDLNTFLHEPFSSVAATCQTPKIACKNGDKNCHQSHGAVSLTMCKLTSGKHPNCRYKEKRQNKSYVVACKPPQKKDSQQFHLVPVHLDRVL
Kd [1]: 33.5 nM | Kd [2]: 28.5 nM
